Measured values from patent US8735097B2, “Human antibiotic proteins” (Planton GmbH, priority 1999, dated 2014).
Where no end group is shown, it is not given here.

Assays:
gram-positive bacteria = settings: cited from earlier work
gram-negative bacteria = settings: cited from earlier work
Staphylococcus aureus [1] = experiment: Liquid culture test, LD90 by counting colony-forming units, Staphylococcus aureus; assay type: cell-based; settings: 3 hours at 37° C., 10 mmol sodium phosphate buffer pH 7.4 with 1% TSB
Procedure: (§1) To be able to assess the dose-dependent range of action of an antimicrobial or antibiotic protein, a liquid culture testing system was used (cf. Ganz et al., 1985).
(§2) About 10 μl of a 1×10^7/ml dilution of the corresponding microorganisms in sodium-phosphate buffer (cf. 3.1) was added to 80 μl of sodium-phosphate buffer together with 1.25% TSB medium (v/v). 10 μl of 0.01% acetic acid was added with the corresponding concentrations of the antimicrobial or antibiotic protein (100 μg/ml, 50 μg/ml, 25 μg/ml, 12.5 μg/ml, and 6.25 μg/ml).
(§3) These batches were incubated in a 96-hole plate (Becton Dickinson, Heidelberg) for 3 hours at 37° C. while being shaken lightly (150 rpm). […] After 24 to 36 hours of growth, the colonies were counted out.
(§4) SAP-3 was incubated at the indicated concentrations at 37° C. for 3 hours with 5·10^4 KBE/ml (KBE=colony-forming units) of E. coli and Staphylococcus aureus in 100 μl of 10 mmol of sodium phosphate buffer (pH=7.4) together with 1% TSB (TSB=trypticase-soy broth). The antimicrobial activity of SAP-3 was determined by counting out the KBE on the subsequent day. […]
SAP-2 was incubated at the indicated concentrations at 37° C. for 3 hours with 1·10^5 KBE/ml of the respective microorganisms in 100 μl of 10 mmol of sodium phosphate buffer (pH=7.4) together with 1% TSB. The antimicrobial activity of SAP-2 was determined by counting out the KBE on the subsequent day. […]

Staph aureus = experiment: MIC, antimicrobial activity against Staph aureus; assay type: cell-based, Staphylococcus aureus
Excerpt: (§5) The following microorganisms were used for the tests: • Escherichia coli (E. coli)—ATCC (American Type Culture Collection) No. 11303 • Pseudomonas aeruginosa—ATCC No. 15442 • Staphylococcus aureus (clinical isolates from the dermatological hospital of Kiel) • Staphylococcus epidermidis (clinical isolates from the dermatological hospital of Kiel) • Candida albicans (clinical isolates from the dermatological hospital of Kiel)
(§6) The microorganisms were cultivated on Trypticase-soy-broth (TSB) agar plates at 37° C. If they were not needed for a long time, they were stored at 4° C. For the tests, in each case a single colony of the corresponding microorganisms was inoculated in 40 ml of TSB medium and incubated overnight at 37° C. while being shaken (250 rpm). To quantify the microorganisms, the optical density of the overnight cultures was measured at 620 nm (OD620), and the colony number was determined by flattening out corresponding dilution stages.
(§7) To be able to assess the dose-dependent range of action of an antimicrobial or antibiotic protein, a liquid culture testing system was used (cf. Ganz et al., 1985). […]
as §3

E. coli [2] = experiment: MIC, antimicrobial activity against E. coli; assay type: cell-based, Escherichia coli
Excerpt: as §5, §6, §7, §3

E. coli [3] = experiment: Liquid culture test, LD90 by counting colony-forming units, E. coli; assay type: cell-based, Escherichia coli; settings: 3 hours at 37° C., 5·10^4 KBE/ml, 10 mmol sodium phosphate buffer pH 7.4 with 1% TSB
Procedure: as §1, §2
(§8) These batches were incubated in a 96-hole plate (Becton Dickinson, Heidelberg) for 3 hours at 37° C. while being shaken lightly (150 rpm). After the incubation time, tenfold dilution series were made from 50 μl of each of the batches with sodium-phosphate buffer and flattened out (100 μl) in each case in 3 parallel lines on TSB-agar plates. After 24 to 36 hours of growth, the colonies were counted out.
as §4, with “day. 100 μl of the respective batches in tenfold dilution stages was flattened out on TSB plates in advance.” for “day.”

Pseudomonas aeruginosa [4] = settings: cited from earlier work
E. coli [5] = settings: cited from earlier work
Candida albicans [6] = settings: cited from earlier work
Klebsiella pneumoniae = settings: cited from earlier work
Staphylococcus aureus [7] = settings: cited from earlier work
Candida albicans [8] = experiment: Liquid culture test, LD90 by counting colony-forming units, Candida albicans; assay type: cell-based; settings: 3 hours at 37° C., 1·10^5 KBE/ml, 10 mmol sodium phosphate buffer pH 7.4 with 1% TSB
Procedure: as §1, §2, §8
(§9) SAP-2 was incubated at the indicated concentrations at 37° C. for 3 hours with 1·10^5 KBE/ml of the respective microorganisms in 100 μl of 10 mmol of sodium phosphate buffer (pH=7.4) together with 1% TSB. The antimicrobial activity of SAP-2 was determined by counting out the KBE on the subsequent day. 100 μl of the respective batches was flattened out in tenfold dilution stages on TSB plates in advance. Then, the plates were incubated at 37° C. overnight.

propionibacterium acnes = experiment: Liquid culture test, LD90 by counting colony-forming units, propionibacterium acnes; assay type: cell-based; settings: 3 hours at 37° C., 1·10^5 KBE/ml, 10 mmol sodium phosphate buffer pH 7.4 with 1% TSB
Procedure: as §1, §2, §8, §9

human RNA = experiment: RNase activity; assay type: biochemical; settings: 1.2 μg of SAP-2, one hour at 37° C.
Procedure: RNase activity: 1.2 μg of SAP-2 digested about 5 μg of human RNA in one hour at 37° C.

Pseudomonas aeruginosa [9] = experiment: Liquid culture test, LD90 by counting colony-forming units, Pseudomonas aeruginosa; assay type: cell-based; settings: 3 hours at 37° C., 1·10^5 KBE/ml, 10 mmol sodium phosphate buffer pH 7.4 with 1% TSB
Procedure: as §1, §2, §8, §9

In the case of “hBD-2: second β-defensin isolated in humans, 41 amino acids, inducible peptide (GIGDPVTCLKSGAICHPVFCPRRYKQIGTCGLPGTKCCKKP; ends and bridges not checked; cysteine pairing not given here; UniProt O15263 24-64, looked up)”, the “LD90 against gram-positive bacteria” value (gram-positive bacteria) is listed as “exceeds 100 μg/ml” and the “LD90 against gram-negative bacteria” value (gram-negative bacteria) is listed as 10 µg/mL.

For “SAP-3: human antibiotic protein of about 6 kDa isolated from lesional psoriasis scales, SEQ ID NO: 2, to be renamed hBD-3 (GIINTLQKYYCRVRGGRCAVLSCLPKEEQIGKCSTRGRKCCRRKK; listed as Homo sapiens)”, the “LD90 for Staphylococcus aureus” value (Staphylococcus aureus [1]; 5·10^4 KBE/ml) was 2.5 to 5 µg/mL, the “MIC, antimicrobial activity against Staph aureus” value (Staph aureus) was less than 100 µg/mL and the “MIC, antimicrobial activity against E. coli” value (E. coli [2]) was less than 20 µg/mL. For the same molecule, the “LD90 for E. coli” value (E. coli [3]) was 2.5 to 5 µg/mL.

B1: TAP: first known epithelial β-defensin, which protects the trachea of bovines, 64 amino acids (protein, UniProt P25068 1-64, looked up)
chain: MRLHHLLLALLFLVLSAWSGFTQGVGNPVSCVRNKGICVPIRCPGSMKQIGTCVGRAVKCCRKK
modifications: ends and bridges not checked
notes: first known epithelial β-defensin, which protects the trachea of bovines, 64 amino acids
For B1, the “minimum inhibition concentration against Pseudomonas aeruginosa” value (Pseudomonas aeruginosa [4]) is listed as 12 to 50 µg/mL, the “minimum inhibition concentration against E. coli” value (E. coli [5]) is listed as 12 to 50 µg/mL and the “action on Candida albicans” value (Candida albicans [6]) is listed as “destroyed”. For the same molecule, the “minimum inhibition concentration against Klebsiella pneumoniae” value (Klebsiella pneumoniae) was 12 to 50 µg/mL and the “minimum inhibition concentration against Staphylococcus aureus” value (Staphylococcus aureus [7]) was 12 to 50 µg/mL.

B2: SAP-2: human antibiotic protein of about 20 kDa isolated from lesional psoriasis scales, SEQ ID NO: 1, to be renamed RNase 7 (protein, listed as Homo sapiens)
chain: KPKGMTSSQWFKIQHMQPSPQACNSAMKNINKHTKRCKDLNTFLHEPFSSVAATCQTPKIACKNGDKNCHQSHGPVSLTMCKLTSGKYPNCRYKEKRQNKSYVVACKPPQKKDSQQFHLVPVHLDRVL
In the case of B2, the “LD90 for Candida albicans” value (Candida albicans [8]) is reported as 15 to 30 µg/mL, the “LD90 for propionibacterium acnes” value (propionibacterium acnes) is reported as 4 to 7.5 µg/mL and the “LD90 for Staphylococcus aureus” value (Staphylococcus aureus [1]; 1·10^5 KBE/ml) is reported as 7.5 to 15 µg/mL. The “MIC, antimicrobial activity against Staph aureus” value (Staph aureus) was less than 100 µg/mL, the “MIC, antimicrobial activity against E. coli” value (E. coli [2]) was less than 50 µg/mL and the “RNase activity: human RNA digested” value (human RNA) was “about 5 μg”. The “LD90 for Pseudomonas aeruginosa” value (Pseudomonas aeruginosa [9]) was 7.5 to 15 µg/mL.
